# Data taken from US20230113734A1 (CELLTRION, published 2023).
# Changes are numbered by the printed parent chain.
# T1: HCoV-HKU1 S1 (HCoV-HKU1, UniProt Q5MQD0 13-760)
# T1 construct: domain: S1
# T1 sequence: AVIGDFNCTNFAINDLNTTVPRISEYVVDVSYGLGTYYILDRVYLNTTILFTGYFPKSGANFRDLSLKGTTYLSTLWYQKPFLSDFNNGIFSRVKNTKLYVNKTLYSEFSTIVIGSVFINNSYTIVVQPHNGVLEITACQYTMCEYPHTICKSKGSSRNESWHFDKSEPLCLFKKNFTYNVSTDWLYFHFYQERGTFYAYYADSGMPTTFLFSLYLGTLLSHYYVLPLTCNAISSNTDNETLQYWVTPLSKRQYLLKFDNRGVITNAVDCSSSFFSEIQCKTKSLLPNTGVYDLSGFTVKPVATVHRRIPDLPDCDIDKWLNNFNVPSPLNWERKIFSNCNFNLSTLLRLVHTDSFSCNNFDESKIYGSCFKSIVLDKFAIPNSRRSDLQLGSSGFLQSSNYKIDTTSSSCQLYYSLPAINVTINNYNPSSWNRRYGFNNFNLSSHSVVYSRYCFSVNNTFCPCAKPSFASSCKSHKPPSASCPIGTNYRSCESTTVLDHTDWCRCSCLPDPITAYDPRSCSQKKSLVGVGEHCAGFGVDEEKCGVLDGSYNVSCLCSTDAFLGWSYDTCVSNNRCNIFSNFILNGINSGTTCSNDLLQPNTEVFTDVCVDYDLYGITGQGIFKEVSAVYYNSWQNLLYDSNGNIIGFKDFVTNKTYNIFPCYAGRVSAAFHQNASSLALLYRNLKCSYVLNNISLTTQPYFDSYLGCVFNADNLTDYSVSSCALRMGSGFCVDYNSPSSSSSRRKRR
# B1: No. 139 antibody (full IgG) (antibody, V domains shown)
# VH: QITLKESGPTLVKPTQTLTLTCSFSGFSLSTSGVGVGWIRQPPGKALEWLALIDWDDNKYHTTSLKTRLTISKDTSKNQVVLTMTNMDPVDTATYYCARIPGFLRYRNRYYYYGMDVWGQGTTVTVSS
# VL: ELVLTQPPSVSAAPGQKVTISCSGSSSNIGNNYVSWYQQLPGTAPKLLIYDNNKRPSGIPDRFSGSKSGTSATLGITGLQTGDEADYYCGTWDSSLSAGVFGGGTELTVL
# notes: also called CT-P59
# B2: No. 266 scFv-Fc antibody fragment (scFv, V domains shown)
# VH: EVQLVESGGGLVQPGGSLRLSCAASGFTVSSNYMTWVRQAPGKGLEWVSVIYSGGSTFYADSVKGRFTISRDNSKNTLYLQMNSLRAEDTAVYYCARDLVVYGMDVWGQGTTVTVSS
# VL: ELELTQPPSVSVAPGKTARITCGGNNIGSKSVHWYQQKPGQAPVLVIYYDSDRPSGIPERFSGSNSGNTATLTISRVEAGDEADYYCQVRDSSSDHPVFGGGTKVTVL
# B3: No. 276 scFv-Fc antibody fragment (scFv, V domains shown)
# VH: B2 VH with E1Q, E6Q
# VL: ELELTQPPSASGAPGQRVTISCSGSSSNIGGSDVGWYQHLPGMAPRLLIYKSNQRPSGVPDRFSASKSGTSASLAISGLQSEDEGDYYCATWDDRLNWVFGGGTKVTVL
# B4: No. 268 scFv-Fc antibody fragment (scFv, V domains shown)
# VH: B2 VH with E1Q, E6Q, L11V, G16R
# VL: ELELTQPPSVSGAPGQRVTISCTGSDSNIGAGYDVHWYQQLPGTAPKLLIYNNNNRPSGVPDRFSGSKSGTSASLAITGLQAEDEADYFCQSSDSGLTGWVFGGGTKLTVL
# How the values were obtained:
# HCoV-HKU1 S1 = biological target: T1, HCoV-HKU1 S1; assay: Octet binding specificity analysis (FIG. 10)
# [1] = biological target: SARS-CoV-2 S protein (spike protein) (SARS-CoV-2, UniProt P0DTC2 16-1213); assay: ELISA, S proteins on plate
Binder,binding result (HCoV-HKU1 S1),Binding ability [1]
B1,no binding,–
B2,–,0.8 relative to positive control antibody
B3,–,1 relative to positive control antibody
B4,–,1.09 relative to positive control antibody
